One may read the Kd as a measure of binding affinity in units of concentration. As a reminder, the koff is the first-order rate constant of dissociation. Broadly, the kon is the second-order rate constant of association. In general, IC50 refers to the midpoint of a concentration-inhibition curve.

Experimental findings from patent US20110076723A1, “ANTIBODY-PEPTIDE FUSED SYNERGIBODY” (SAMSUNG ELECTRONICS CO., LTD., priority 2008, published 2011) are described below.

One test addresses T1, recombinant hAng-2 (Homo sapiens, UniProt O15123).
T1 construct: His tag; purchased R&D Systems
T1 sequence (O15123 19-496): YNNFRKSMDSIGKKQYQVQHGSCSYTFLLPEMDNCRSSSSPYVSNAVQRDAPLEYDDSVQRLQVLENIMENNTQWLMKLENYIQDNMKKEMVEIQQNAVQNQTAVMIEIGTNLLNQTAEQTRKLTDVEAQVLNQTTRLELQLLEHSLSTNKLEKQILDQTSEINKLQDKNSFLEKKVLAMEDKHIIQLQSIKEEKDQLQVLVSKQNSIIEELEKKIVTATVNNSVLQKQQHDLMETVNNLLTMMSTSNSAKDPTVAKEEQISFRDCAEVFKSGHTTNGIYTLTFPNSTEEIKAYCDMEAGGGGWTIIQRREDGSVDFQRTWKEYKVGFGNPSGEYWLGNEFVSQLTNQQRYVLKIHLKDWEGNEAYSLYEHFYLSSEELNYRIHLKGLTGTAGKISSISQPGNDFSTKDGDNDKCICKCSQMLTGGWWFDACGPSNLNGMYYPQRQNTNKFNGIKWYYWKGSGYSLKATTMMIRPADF
Put plainly: Affinity to Ang-2 antigen by surface plasmon resonance (BIAcore T100). To be noted: SPR, hAng-2 on CM5 chip. It is filed as binding. The method, then: (§1) The SPR method using BIAcore T100 (GE Healthcare) is used to accurately measure the affinity to the Ang-2 antigens. 20 μg/ml recombinant hAng-2 (R&D Systems) is fixed on a sensor chip CM5 (GE Healthcare) using pH4.5 acetate solution and amine coupling kit (GE Healthcare). The antibodies obtained in Section 2 above are diluted to eight different concentrations down to 0.78125 nM by diluting to ½ each time starting from 100 nM. Then the antigen/antibody affinity is measured by causing the antigens to repeatedly bind and disassociate with the antibodies fixed on the sensor chip (using pH2.2 glycine-HCl solution).
(Surface plasmon resonance follows binding to a sensor surface in real time, without labels.)

The target of test [1] is T2, recombinant hAng-2 (recombinant protein with His tag attached to human Ang-2; R&D Systems) (human, UniProt O15123 19-496).
T2 construct: also called angiopoietin-2; ANGPT2
T2 sequence (looked up): T1 sequence (O15123 19-496)
In words: SPR, BIAcore T100; hAng-2 amine-coupled on CM5, antibody 100 to 0.78125 nM. The method, then: as §1

Test [2] deals with T2, recombinant hAng-2 (recombinant protein …). Put plainly: competitive ELISA; antibody titrated with 1 nM hAng-2 (His) on coated hTie2-Fc. The method, then:
A competitive ELISA is performed to assess the molecular interaction of the binders. A 96-well MaxiSorp™ flat-bottom plate (Nunc) is coated with hTie2-Fc (R&D Systems), which is a fused protein including the water-soluble extracellular portion of human Tie-2 and Fc of human IgG₁ dissolved in DMEM culture solution containing 50 μg/ml bovine serum albumin (BSA). The concentration of hTie2-Fc used as a coating material is equivalent to 75% of its maximum binding concentration with 1 nM of recombinant hAng-2 (recombinant protein with His tag attached to human Ang-2; R&D Systems). Then the plate is washed five times with Phosphate Buffer Saline (PBS) containing 0.1% Tween-20 and blocked at room temperature for two hours with PBS containing 5% BSA. Each anti-Ang-2 antibodies are diluted from 100 nM by one-fourth each time with PBS containing 1% BSA and 1 nM hAng-2 and adjusted to 6.1 pM for Ang-2:Tie-2 neutralization ELISA. 100 μl of antibody/hAng-2 solutions are placed in each corresponding well and left to react at room temperature for two hours. Then the wells are washed five times with PBS containing 0.1% Tween-20, and the anti-His antibodies (GE Healthcare) are diluted to about 1:3,000 with PBS containing 1% BSA and left to react at room temperature for one hour. Afterwards, 100 μl of goat anti-mouse-IgG-HRP (Pierce) diluted with PBS containing 1% BSA to about 1:10,000 is added to each well of the plate, left to react at room temperature for one hour, and washed with PBS containing 0.1% Tween-20 five times. Lastly, 100 μl of TMB substrate (SIGMA) is added to each well of the plate to induce color reaction, and the reaction is stopped by adding 50 μl of 5N H₂SO₄ solution. The OD₄₅₀ value is read on a plate reader (Molecular Devices).

B1: SAITAng-2-4 (antibody, V domains shown)
VH: QVQLQQSGAELARPGASVKLSCKASGYTFTDYYINWAKQRTGQGLEWIGEIYPGSGDTYYNEKFKGKATLTADKSSSTAYMQLSSLTSEDSAVYFCARYGYKGVYFDYWGQSTTLTVSS
VL: ENVLTQSPAIMAASLGQKVTMTCSASSSVSSSYLHWYQQKSGASPKPLIHRTSNLASGVPARFSGSGSGTSYSLTISSVEAEDDATYYCQQWSGYPFTFGAGTKLELK
notes: Mouse monoclonal anti-Ang-2 antibody purified from hybridoma culture
B1: in the test with recombinant hAng-2, the “Off Rate” value came out at 0.0004769 s⁻¹ and the “On rate” value was 512100 M⁻¹ s⁻¹. Besides, in test [1], the Kd was 0.931 nM, the koff came out at 0.000477 s⁻¹ and the kon was 512000 M⁻¹ s⁻¹. For the same molecule, in test [2], the IC50 is 1.01 nM.
